This note sets out measurements from patent US20210063414A1, “METHODS FOR PREVENTING AND/OR TREATING BONE LOSS CONDITIONS BY MODULATING IRISIN” (Dana-Farber Cancer Institute, Inc., priority 2018, published 2021).

Holding throughout (experiment): Crosslinking/co-immunoprecipitation/mass spectrometry (TMT quantitative proteomics) to identify irisin receptors
Holding throughout (type): binding

For experiment [1], the target named is T1, MLO-Y4 cell surface proteins (Mus musculus, UniProt O70404).
T1 construct: endogenous in cells; host or cells: MLO-Y4
T1 sequence (O70404 1-101): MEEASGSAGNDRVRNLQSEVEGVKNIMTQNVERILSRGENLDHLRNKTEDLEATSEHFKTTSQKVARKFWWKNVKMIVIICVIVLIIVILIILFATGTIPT
The conditions noted are these: co-precipitated protein Vamp8 (VAMP8_MOUSE). In outline:
(§1)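 Mouse MLO-Y4 cells were switched to serum-free FreeStyle medium for 4 h, chilled, then exposed to 10 nM His-tagged irisin (or adipsin as control) for 20 min. Cells were crosslinked with 1.5 mM DTSSP (30 min, ice), and bound proteins were pulled down on Ni-NTA and eluted with 250 mM imidazole. Eluates were separated by SDS-PAGE, trypsin-digested in gel, TMT 6-plex labelled and quantified by MS3-based LC-MS/MS on an Orbitrap Fusion Lumos.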

Experiment [2] concerns the target T2, MLO-Y4 cell surface proteins (Mus musculus, UniProt P62880).
T2 construct: endogenous in cells; host or cells: MLO-Y4
The conditions noted are these: co-precipitated protein Gnb2 (GBB2_MOUSE). In a few lines: as §1

Experiment [3] deals with T3, MLO-Y4 cell surface proteins (Mus musculus, UniProt Q66GT5).
T3 construct: endogenous in cells; host or cells: MLO-Y4
T3 sequence (Q66GT5 32-193): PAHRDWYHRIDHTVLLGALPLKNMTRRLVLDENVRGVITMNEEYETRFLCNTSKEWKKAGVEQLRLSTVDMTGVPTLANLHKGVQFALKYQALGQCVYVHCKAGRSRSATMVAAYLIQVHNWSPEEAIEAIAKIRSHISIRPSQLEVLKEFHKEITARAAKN
Conditions: co-precipitated protein Ptpmt1 (PTPM1_MOUSE). In outline:
as §1

Experiment [4] concerns the target T4, MLO-Y4 cell surface proteins (Mus musculus, UniProt Q8BJQ9).
T4 construct: endogenous in cells; host or cells: MLO-Y4
T4 sequence (Q8BJQ9 1-530): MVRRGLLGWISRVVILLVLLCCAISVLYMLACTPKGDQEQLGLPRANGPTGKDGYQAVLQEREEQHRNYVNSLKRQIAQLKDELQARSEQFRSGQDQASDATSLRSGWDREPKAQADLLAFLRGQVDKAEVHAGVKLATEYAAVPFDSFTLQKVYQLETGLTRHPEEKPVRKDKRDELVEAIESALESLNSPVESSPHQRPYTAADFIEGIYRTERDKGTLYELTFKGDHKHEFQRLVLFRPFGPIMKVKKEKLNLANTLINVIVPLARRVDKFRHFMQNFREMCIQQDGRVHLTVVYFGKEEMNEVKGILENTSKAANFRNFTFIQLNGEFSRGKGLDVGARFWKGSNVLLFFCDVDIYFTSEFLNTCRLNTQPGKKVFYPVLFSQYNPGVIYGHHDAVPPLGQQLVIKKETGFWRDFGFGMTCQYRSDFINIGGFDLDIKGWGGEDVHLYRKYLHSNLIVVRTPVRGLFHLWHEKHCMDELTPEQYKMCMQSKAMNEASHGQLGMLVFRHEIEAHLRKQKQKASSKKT
Conditions: co-precipitated protein Csgalnact1 (CGAT1_MOUSE). In a few lines: as §1

In experiment [5] the target is T5, MLO-Y4 cell surface proteins (Mus musculus, UniProt Q9Z138).
T5 construct: endogenous in cells; host or cells: MLO-Y4
T5 sequence (Q9Z138 34-944): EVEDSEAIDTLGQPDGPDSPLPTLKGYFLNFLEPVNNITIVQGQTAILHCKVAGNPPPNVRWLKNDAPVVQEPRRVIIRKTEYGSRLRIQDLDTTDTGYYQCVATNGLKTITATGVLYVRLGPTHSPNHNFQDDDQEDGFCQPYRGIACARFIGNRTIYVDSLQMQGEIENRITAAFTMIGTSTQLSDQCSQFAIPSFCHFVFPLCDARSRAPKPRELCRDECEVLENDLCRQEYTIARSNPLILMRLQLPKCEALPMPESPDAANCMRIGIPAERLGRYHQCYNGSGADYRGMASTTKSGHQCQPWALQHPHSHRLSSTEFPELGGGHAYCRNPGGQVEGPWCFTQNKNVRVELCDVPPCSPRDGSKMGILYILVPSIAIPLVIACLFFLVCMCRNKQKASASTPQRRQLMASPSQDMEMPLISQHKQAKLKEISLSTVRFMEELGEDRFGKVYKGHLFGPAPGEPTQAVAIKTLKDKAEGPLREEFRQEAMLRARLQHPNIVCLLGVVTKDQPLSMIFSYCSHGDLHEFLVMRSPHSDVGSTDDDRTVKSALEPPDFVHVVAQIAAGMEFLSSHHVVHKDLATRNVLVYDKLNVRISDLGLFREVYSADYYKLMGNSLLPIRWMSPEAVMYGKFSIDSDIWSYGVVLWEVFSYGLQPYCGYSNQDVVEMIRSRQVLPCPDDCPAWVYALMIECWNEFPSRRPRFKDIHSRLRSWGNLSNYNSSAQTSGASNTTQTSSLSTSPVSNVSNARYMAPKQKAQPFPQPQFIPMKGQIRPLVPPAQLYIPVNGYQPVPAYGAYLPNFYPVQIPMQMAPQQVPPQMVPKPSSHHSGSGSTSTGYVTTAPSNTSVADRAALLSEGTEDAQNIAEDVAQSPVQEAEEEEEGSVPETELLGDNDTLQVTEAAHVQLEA
The conditions noted are these: co-precipitated protein Ror2 (ROR2_MOUSE). In outline:
as §1

T2 sequence (P62880 whole entry): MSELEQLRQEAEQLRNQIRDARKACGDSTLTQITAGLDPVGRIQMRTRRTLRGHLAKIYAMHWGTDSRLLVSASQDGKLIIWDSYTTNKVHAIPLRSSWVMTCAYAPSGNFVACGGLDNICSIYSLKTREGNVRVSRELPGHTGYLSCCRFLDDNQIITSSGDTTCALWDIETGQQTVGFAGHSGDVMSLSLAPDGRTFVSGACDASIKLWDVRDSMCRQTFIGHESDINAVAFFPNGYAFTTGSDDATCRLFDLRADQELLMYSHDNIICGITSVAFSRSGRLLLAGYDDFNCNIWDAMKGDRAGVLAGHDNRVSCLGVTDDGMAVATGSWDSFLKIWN

B1: irisin: secreted cleaved form of FNDC5; recombinant human/mouse irisin with C-terminal his tag produced in HEK293 cells (protein)
chain: DSPSAPVNVTVRHLKANSAVVSWDVLEDEVVIGFAISQQKKDVRMLRFIQEVNTTTRSCALWDLEEDTEYIVHVQAISIQGQSPASEPVLFKTPREAEKMASKNKDEVTMKE
modifications: left off: small tags and cut ends
notes: secreted cleaved form of FNDC5; recombinant human/mouse irisin with C-terminal his tag produced in HEK293 cells
For the molecule B1, the TMT signal-to-noise ratio in experiment [1] was 169.775; in experiment [2] it was 165.95; in experiment [3], 51.6065; in experiment [4], 1300.88; in experiment [5], 39.5932. In addition, the “irisin/adipsin TMT signal-to-noise ratio” value is recorded as 0.566 in experiment [1]; 0.563 in experiment [2]; 0.559 in experiment [3]; 0.536 in experiment [4]; 0.585 in experiment [5].
